The source of these data is patent US20110033476A1 (published 2011).

Experiment [1] has as its target M2 protein of influenza A/Puerto Rico/8/34 (H1N1) (Influenza A virus A/Puerto Rico/8/34 (H1N1)) (UniProt P06821). The experiment is described as follows: ELISA on purified A/Puerto Rico/8/34 virus coated on wells (FIG. 14a).
Experiment [2] shares this target. Description: surface plasmon resonance, Fab binding to virus. In general terms: In SPR one partner is held on a chip, and binding of the other changes the refractive index at the surface.
The target of experiment [3] is T1, M2 protein of influenza A/Puerto Rico/8/34 (H1N1) (Influenza A virus A/Puerto Rico/8/34 …, UniProt P06821 1-97).
T1 construct: whole, on cells
T1 sequence (P06821 whole entry): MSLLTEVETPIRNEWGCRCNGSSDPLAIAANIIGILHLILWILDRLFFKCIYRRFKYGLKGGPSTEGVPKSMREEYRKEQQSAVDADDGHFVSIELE
Description: ELISA on influenza virus, crude supernatant (FIG. 9). On the technique in general: In an ELISA, binding on a coated surface is turned into a signal by an enzyme label.

Chain of M2 protein of influenza A/Puerto Rico/8/34 (H1N1) (Influenza A virus A/Puerto Rico/8/34 (H1N1)) (P06821 whole entry): as above

Usually EC50 stands for the concentration needed to bring the measured effect to its halfway point. A higher EC50 goes with a need for much substance. Take TCN-032 (antibody): the EC50 in experiment [1] is 0.1 µg/mL.

The molecule TCN-031 (antibody) gave an EC50 in experiment [1] of 0.1 µg/mL.

One may read the Kd as the free concentration of one partner at which half of the binding sites on the other are occupied at equilibrium, for simple one-to-one binding. Read a low Kd as tighter binding. The term koff denotes the first-order rate constant of dissociation. Low values mean slow dissociation, high ones fast dissociation. Usually kon stands for the rate constant with which the complex forms. A higher kon goes with faster complex formation. In experiment [2], TCN-032 Fab yielded a Kd of 3.2 nM, a koff of 0.0023 s⁻¹ and a kon of 740000 M⁻¹ s⁻¹.

For TCN-031 Fab, in experiment [2], the Kd is 14 nM, the koff was determined as 0.014 s⁻¹ and the association rate constant (kon) worked out at 1e+06 M⁻¹ s⁻¹.

B1: 23K12 (antibody, V domains shown)
VH: EVQLVESGGGLVQPGGSLRISCAASGFTVSSNYMSWVRQAPGKGLEWVSVIYSGGSTYYADSVKGRFSFSRDNSKNTVFLQMNSLRAEDTAVYYCARCLSRMRGYGLDVWGQGTTVTVS
VL: DIQMTQSPSSLSASVGDRVTITCRTSQSISSYLNWYQQKPGKAPKLLIYAASSLQSGVPSRFSGSGSGTDFTLTISGLQPEDFATYYCQQSYSMPAFGQGTKLEIK
As to B1, the binding result in experiment [3] is on record as “binds”.
